Measurements published in patent US20160311886A1, “Constructs Binding to Phosphatidylserine and Their Use in Disease Treatment and Imaging” (Board of Regents, The University of Texas System, priority 2005, published 2016).

B1: 3G4: Mouse IgG3 kappa monoclonal antibody to PS and anionic phospholipids; binding mediated by β2-glycoprotein I (antibody, listed as Mus musculus)
VH: MGWTWIFILILSVTTGVHSEVQLQQSGPELEKPGASVKLSCKASGYSFTGYNMNWVKQSHGKSLEWIGHIDPYYGDTSYNQKFRGKATLTVDKSSSTAYMQLKSLTSEDSAVYYCVKGGYYGHWYFDVWGAGTTVTVSSATTTAPSVYPLVP
VL: MDMRAPAQILGFLLLLFPGTRCDIQMTQSPSSLSASLGERVSLTCRASQDIGSSLNWLQQGPDGTIKRLIYATSSLDSGVPKRFSGSRSGSDYSLTISSLESEDFVDYYCLQYVSSPPTFGAGTKLELKRADAAPTVFIFGRIP

Experiments:
[1] = test system: tumor and normal vascular endothelium; test: Biodistribution of 9D2 antibody and annexin V in tumor bearing mice; type: in vivo, mouse
Protocol: To detect externally-positioned phospholipids, methods were performed essentially as previously described (Example V; Ran et al., 1998). Tumor-bearing SCID mice were injected intravenously with either 50 μg of 9D2 or biotinylated 9D2 antibody or 100 μg of biotinylated annexin V. Sixty min later mice were sacrificed and their blood circulation was exsanguinated and perfused with heparinized saline as previously described (Burrows et al., 1992). All major organs and tumor were harvested and snap-frozen for preparation of cryosections.
Sections were blocked with PBS containing 10% serum. To prevent loss of phospholipids during slide processing, detergents and organic solvents were omitted from blocking and washing buffers. Rat IgM was detected using goat anti rat IgM specific)-HRP conjugate followed by development with carbazole or DAB (Fries et al., 1993). Biotinylated reagents were detected by streptavidin conjugated to HRP.
Tumor sections derived from mice injected with saline or rat IgM of irrelevant specificity served as negative controls. […] No signal was detected under these conditions. The number of positive vessels per high power field was determined at magnification of ×100. At least 10 fields per section were examined and the average percentage of positive vessels was calculated. […]
Structures with localized 9D2 antibody or annexin V were identified as blood vessels by morphological appearance on DAB-stained sections and by co-incident staining with the pan-endothelial cell marker, MECA 32 on serial sections of frozen tissues. Quantification on DAB-stained sections was done by counting vessels stained by MECA 32, 9D2 or annexin V in serial sections of a tumor. […] At least 10 random fields per section (0.317 mm^2/field) were scored in blinded fashion by two independent observers. The mean numbers and standard errors of vessels stained by 9D2, annexin V or MECA 32 were calculated. The mean number of 9D2 or annexin V-positive vessels determined in each tumor type group was compared to the mean number of MECA 32-positive vessels in the same tumor group. […]

[2] = test system: orthotopic MDA-MB-435 breast tumors; test: 3G4 localization to tumor blood vessels in vivo; set-up: species or system mouse
Source text: Frozen sections of tumor and normal tissues were stained for the presence of mouse immunoglobulin. SCID mice that had been confirmed as having no detectable circulatory immunoglobulin were used to avoid background staining. In these studies, sections were counterstained with anti-mouse CD31 to detect vascular endothelium and the images were merged. […] Coincident staining appeared yellow, unless dominated by a particularly intense green or red fluorescence in that region. The antigen specificity of vessel localization was confirmed by the lack of endothelial staining in tumors from mice injected with the isotype-matched control antibodies, BBG3.

tumors = test: Tumor treatment with 3G4 and its F(ab′)2 fragment; type: in vivo, mouse; conditions: treated on day 9
WiDr (colon carcinoma) = test: WiDr colon carcinoma model; type: in vivo, mouse; conditions: 100 μg 3×/week from day 5; preliminary study
Protocol: Treatment was started on day 5, when the tumors were small (10 mice per group). 100 μg of each antibody was injected 3×/week and tumor growth monitored.

Molecule	PS-positive vessels of MECA 32-stained vessels per field ([1]; B16 tumor)	PS-positive vessels of MECA 32-stained vessels per field ([1]; L540cy tumor)	PS-positive vessels of MECA 32-stained vessels per field ([1]; MDA-MB-231 tumor, one hour after i.v. injection)	tumor blood vessels with localized antibody ([2]; after i.p. or i.v. injection)	time to maximal localization to tumor vessels ([2]; i.p. injection)	time to maximal staining of tumor vessels ([2]; i.v. injection)	tumor growth (tumors)	tumor growth (WiDr (colon carcinoma))
Annexin V: High affinity PS binding ligand; natural ligand binding anionic phospholipids and PE	21.3 ± 6.6%	16.7 ± 3.9%	45.3 ± 5.6%					
B1				40±10%	≤ 6 h	≤ 1 h	tumor growth was significantly slowed	slowed tumor growth to essentially the same degree
